Measured values from article PMC8660260 (2021).

Key:
[1] = target: T1, NSP12 peptide on HLA-A*02:01 (human); assay: activation reporter or marker
T1 peptide: FVDGVPFVV

[2] = target: T2, NSP12 peptide on HLA-A*02:01 (human); assay: activation reporter or marker
T2 peptide: TMADLVYAL

B1: CoVTCR 18 (TCR)
alpha TRAV12-1 TRAJ45 CDR3: CVLPSGGGADGLTF
beta TRBV5-1 TRBJ2-1 CDR3: CASTGLAGGPYNEQFF
binding result [1]: recognises

B2: CoVTCR 12 (TCR)
alpha TRAV17 TRAJ57 CDR3: CATVLPTQGGSEKLVF
beta TRBV18 TRBJ1-1 CDR3: CASSLTVNMNTEAFF
binding result [2]: recognises

B3: CoVTCR 19 (TCR)
alpha TRAV35 TRAJ43 CDR3: CAGQLARDMRF
beta TRBV13 TRBJ2-7 CDR3: CASRWAGGTAYEQYF
binding result [1]: recognises
